Test [1] addresses T1, control peptide A2E-1/HLA-A*02:01 complex on T2 cells (member of the P19 mixture) (human).
T1 construct: Loaded on T2 cells as part of the mixture of 19 control peptides
Put plainly: flow cytometry, phage on T2 cells. The source says:
(§1) Binding of the phage clones was detected by HRP-conjugated anti-M13 antibodies and developed using HRP substrate. The absorbance was read at 450 nm. […] Then, unique antibody clones were identified through DNA sequencing of ELISA-positive clones. […] T2 cells loaded with different peptides and β2M were first stained with purified scFv phage clones, followed by staining with a mouse anti-M13 mAb, and finally R-PE conjugated horse anti-mouse IgG from Vector Labs. Each step of the staining was performed for between 30-60 minutes on ice and the cells were washed twice between stainings. All 16 clones recognized PSA146-loaded T2 cells specifically. FIG. 3 provides examples of PSA146/HLA-A*02:01 specific phage clone binding to peptide-loaded T2 cells through FACS. […] The negative control scFv phage clone presents a human antibody previously found not to bind any cell-surface human antigens.
(§2) To identify additional PSA146/HLA-A*02:01 specific phage clones.

For test [2], the target named is T2, control peptide A2E-2/HLA-A*02:01 complex on T2 cells (member of the P19 mixture) (human).
T2 construct: Loaded on T2 cells as part of the mixture of 19 control peptides
Kind of test: flow cytometry, phage on T2 cells.
Description: as §1, §2
(In general: In flow cytometry, cells or beads pass a laser one at a time.)

Test [3] addresses T3, control peptide A2E-3/HLA-A*02:01 complex on T2 cells (member of the P19 mixture) (human).
T3 construct: Loaded on T2 cells as part of the mixture of 19 control peptides
Kind of test: flow cytometry, phage on T2 cells.
Description: as §1, §2

Test [4] has as its target T4, control peptide A2E-4/HLA-A*02:01 complex on T2 cells (member of the P19 mixture) (human).
T4 construct: Loaded on T2 cells as part of the mixture of 19 control peptides
Kind of test: flow cytometry, phage on T2 cells.
Description: as §1, §2

For test [5], the target named is T5, control peptide A2E-5/HLA-A*02:01 complex on T2 cells (member of the P19 mixture) (human).
T5 construct: Loaded on T2 cells as part of the mixture of 19 control peptides
Kind of test: flow cytometry, phage on T2 cells.
Description: as §1, §2

In test [6] the target is T6, control peptide A2E-6/HLA-A*02:01 complex on T2 cells (member of the P19 mixture) (human).
T6 construct: Loaded on T2 cells as part of the mixture of 19 control peptides
Put plainly: flow cytometry, phage on T2 cells.
Description: as §1, §2

The target of test [7] is T7, control peptide A2E-7/HLA-A*02:01 complex on T2 cells (member of the P19 mixture) (human).
T7 construct: Loaded on T2 cells as part of the mixture of 19 control peptides
Kind of test: flow cytometry, phage on T2 cells.
Description: as §1, §2

For test [8], the target named is T8, control peptide A2E-8/HLA-A*02:01 complex on T2 cells (member of the P19 mixture) (human).
T8 construct: Loaded on T2 cells as part of the mixture of 19 control peptides
Put plainly: flow cytometry, phage on T2 cells.
Description: as §1, §2

Test [9] has as its target T9, control peptide A2E-9/HLA-A*02:01 complex on T2 cells (member of the P19 mixture) (human).
T9 construct: Loaded on T2 cells as part of the mixture of 19 control peptides
Put plainly: flow cytometry, phage on T2 cells.
Description: as §1, §2

For test [10], the target named is T10, control peptide A2E-10/HLA-A*02:01 complex on T2 cells (member of the P19 mixture) (human).
T10 construct: Loaded on T2 cells as part of the mixture of 19 control peptides
Put plainly: flow cytometry, phage on T2 cells.
Description: as §1, §2

Test [11] deals with T11, control peptide A2E-11/HLA-A*02:01 complex on T2 cells (member of the P19 mixture) (human).
T11 construct: Loaded on T2 cells as part of the mixture of 19 control peptides
Kind of test: flow cytometry, phage on T2 cells.
Description: as §1, §2

The target of test [12] is T12, control peptide A2E-13/HLA-A*02:01 complex on T2 cells (member of the P19 mixture) (human).
T12 construct: Loaded on T2 cells as part of the mixture of 19 control peptides
Kind of test: flow cytometry, phage on T2 cells.
Description: as §1, §2

The target in test [13] is T13, control peptide A2E-14/HLA-A*02:01 complex on T2 cells (member of the P19 mixture) (human).
T13 construct: Loaded on T2 cells as part of the mixture of 19 control peptides
Kind of test: flow cytometry, phage on T2 cells.
Description: as §1, §2

For test [14], the target named is T14, control peptide A2E-15/HLA-A*02:01 complex on T2 cells (member of the P19 mixture) (human).
T14 construct: Loaded on T2 cells as part of the mixture of 19 control peptides
Put plainly: flow cytometry, phage on T2 cells.
Description: as §1, §2

Test [15] deals with T15, control peptide A2E-16/HLA-A*02:01 complex on T2 cells (member of the P19 mixture) (human).
T15 construct: Loaded on T2 cells as part of the mixture of 19 control peptides
Put plainly: flow cytometry, phage on T2 cells.
Description: as §1, §2

Test [16] addresses T16, control peptide A2E-17/HLA-A*02:01 complex on T2 cells (member of the P19 mixture) (human).
T16 construct: Loaded on T2 cells as part of the mixture of 19 control peptides
Put plainly: flow cytometry, phage on T2 cells.
Description: as §1, §2

In test [17] the target is T17, control peptide A2E-19/HLA-A*02:01 complex on T2 cells (member of the P19 mixture) (human).
T17 construct: Loaded on T2 cells as part of the mixture of 19 control peptides
Put plainly: flow cytometry, phage on T2 cells.
Description: as §1, §2

Test [18] addresses T18, control peptide A2E-21/HLA-A*02:01 complex on T2 cells (member of the P19 mixture) (human).
T18 construct: Loaded on T2 cells as part of the mixture of 19 control peptides
Kind of test: flow cytometry, phage on T2 cells.
Description: as §1, §2

Test [19] concerns the target T19, control peptide A2E-23/HLA-A*02:01 complex on T2 cells (member of the P19 mixture) (human).
T19 construct: Loaded on T2 cells as part of the mixture of 19 control peptides
Kind of test: flow cytometry, phage on T2 cells.
Description: as §1, §2

The target of test [20] is T20, PSA 146-154 peptide/HLA-A*02:01 complex on the cell surface (human).
T20 construct: also called PSA146/HLA-A*02:01; PSA146-loaded T2 cells
Put plainly: flow cytometry, phage on T2 cells, anti-M13 + R-PE anti-mouse IgG.
Description: as §1, §2

B1: PSA146/HLA-A*02:01-specific scFv phage clone #20 (scFv, V domains shown)
VH: EVQLVQSGAEVKKPGESLKISCKGSGYSFTSYRIGWVRQMPGKGLEWMGIIYPGDSDTRYSPSFQGQVTISADKSISTAYLQWSSLKASDTAMYYCARWGLSWDGWGVTDYWGQGTLVTVSS
VL: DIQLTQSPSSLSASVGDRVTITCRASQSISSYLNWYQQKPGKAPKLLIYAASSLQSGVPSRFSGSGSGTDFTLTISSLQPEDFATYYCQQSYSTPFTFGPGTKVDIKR
B1: the binding result in test [1], in test [2], in test [3], in [4], in [5] and in test [6] was “no binding” throughout. The binding result in [7], in test [8], in test [9], in [10], in test [11] and in test [12] was “no binding” throughout. Further, the binding result in [13], in test [14], in test [15], in test [16], in test [17] and in [18] was “no binding” throughout. Besides, the binding result is reported as “no binding” in test [19] and “binds” in [20].

B2: PSA146/HLA-A*02:01-specific scFv phage clone #22 (scFv, V domains shown)
VH: EVQLVQSGAEVKKPGESLKISCKGSGYSFTSYWIGWVRQMPGKGLEWMGRIDPSDSYTNYSPSFQGHVTISADKSISTAYLQWSSLKASDTAMYYCARSFGAGYDSWGQGTLVTVSS
VL: QSALTQPASVSGSPGQSITISCTGTSSDVGGYNYVSWYQQHPGKAPKLMIYDVSKRPSGVSNRFSGSKSGNTASLTISGLQAEDEADYYCSSYTSSSRYVFGTGTKVTVLG
Regarding B2, the binding result in [1] was “no binding”; in test [20], “binds”.

B3: PSA146/HLA-A*02:01-specific scFv phage clone #24 (scFv, V domains shown)
VH: QVQLVQSGAEVKKPGASVKVSCKASGYTFTSYYMHWVRQAPGKGLEWMGGFDPEDGETIYAQKFQGRVTMTEDTSTDTAYMELSSLRSEDTAVYYCARYPWDHWGQGTLVTVSS
VL: QAVVTQEPSLTVSPGGTVTLTCASSTGAVTSGYYPNWFQQKPGQAPRPLIYSTNNKHSWTPARFSGSLLGGKAALTLSGVQPEDEAEYYCLLYYGGQGVFGGGTKLTVLG
B3: the binding result in test [1], in test [2], in test [3], in test [4], in [5] and in [6] was “no binding” throughout. In addition, the binding result in test [7], in test [8], in test [9], in test [10], in test [11] and in [12] was “no binding” each time. For the same molecule, the binding result in test [13], in [14], in [15], in test [16], in [17] and in [18] was “no binding” each time. Besides, the figures for the binding result in test [19] and in [20] were “no binding” and “binds”, respectively.

B4: PSA146/HLA-A*02:01-specific scFv phage clone #21 (scFv, V domains shown)
VH: QVQLVQSGAEVKKPGASVKVSCKASGYTFTSYYMHWVRQAPGKGLEWMGGFDPEDGETIYAQKFQGRVTMTEDTSTDTAYMELSSLRSEDTAVYYCARYNYDTWGQGTLVTVSS
VL: QAVVTQEPSLTVSPGGTVTLTCASSTGTVTSTYYPNWFQQKPGQAPRALIYSTSNRHSWTPARFSGSLLGGKAALTVSGVQPDDEAEYYCLVFYGGVWVFGGGTKLTVLG
Turning to B4, the binding result in [1], in test [2], in test [3], in [4], in test [5] and in [6] was “no binding” each time. In addition, the binding result in test [7], in [8], in test [9], in test [10], in test [11] and in test [12] was “no binding” throughout. Besides, the binding result in [13], in test [14], in test [15], in test [16], in test [17] and in [18] was “no binding” in each case. Further, the binding result in [19] was “no binding”; in [20] it was “binds”.

B5: PSA146/HLA-A*02:01-specific scFv phage clone #26 (scFv, V domains shown)
VH: QVQLVQSGAEVKKPGASVKVSCKTSGYTFTNYGISWVRQAPGQGLEWMGWISAYNGNTNYAQNLQGRVTMTTDTSTSTAYMELRSLRSDDTAVYYCARSSYYGYLSDGWGQGTLVTVSS
VL: LPVLTQPPSASGTPGQRVTISCSGSSSNIGTNYVYWYQQLPGTAPKLLIYSNNQRPSGVPDRFSGSKSGTSASLAISGLRSEDEADYYCAAWDDSLSGLYVFGTGTKVTVLG
On to B5, for which the binding result in [1], in test [2], in [3], in test [4], in [5] and in test [6] was “no binding” each time. The binding result in test [7], in test [8], in test [9], in [10], in [11] and in [12] was “no binding” in each case. Moreover, the binding result in [13], in test [14], in test [15], in test [16], in test [17] and in [18] was “no binding” in each case. Besides, the results for the binding result in [19] and in test [20] were “no binding” and “binds”, respectively.

The record behind these values is patent US20200087400A1 (EUREKA THERAPEUTICS, published 2020).
